Experiment [1] addresses T1, HER2/neu extracellular domain (UniProt P04626 23-652, limits assumed).
T1 construct: extracellular domain; also called ErbB2
Briefly: surface plasmon resonance (BIAcore), HER2/neu extracellular domain on the chip, ALM injected; concentrations not given. A general note: In SPR one partner is held on a chip, and binding of the other changes the refractive index at the surface.

Experiment [2] deals with T2, HER3 extracellular domain (UniProt P21860 20-643, limits assumed).
T2 construct: extracellular domain; also called ErbB3
Briefly: surface plasmon resonance (BIAcore), HER3 extracellular domain on the chip, ALM injected; concentrations not given.

T2 sequence (P21860 20-643 limits assumed): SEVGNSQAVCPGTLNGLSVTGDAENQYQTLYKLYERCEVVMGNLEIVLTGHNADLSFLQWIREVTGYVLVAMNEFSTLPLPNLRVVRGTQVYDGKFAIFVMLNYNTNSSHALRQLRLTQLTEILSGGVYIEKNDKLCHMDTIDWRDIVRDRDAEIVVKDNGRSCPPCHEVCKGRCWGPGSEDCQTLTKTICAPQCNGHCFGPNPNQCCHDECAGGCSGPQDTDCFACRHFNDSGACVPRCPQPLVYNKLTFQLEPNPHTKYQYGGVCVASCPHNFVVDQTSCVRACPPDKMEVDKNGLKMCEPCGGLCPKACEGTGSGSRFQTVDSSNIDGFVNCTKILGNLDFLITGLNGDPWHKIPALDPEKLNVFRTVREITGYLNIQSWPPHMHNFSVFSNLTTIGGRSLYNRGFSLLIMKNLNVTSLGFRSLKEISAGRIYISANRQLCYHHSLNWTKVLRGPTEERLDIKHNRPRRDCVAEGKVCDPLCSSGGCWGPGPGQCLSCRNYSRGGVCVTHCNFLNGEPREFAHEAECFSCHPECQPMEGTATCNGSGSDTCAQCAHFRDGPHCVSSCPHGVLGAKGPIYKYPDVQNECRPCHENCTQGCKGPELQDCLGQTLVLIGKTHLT

B1: ALM (A5-ML3.9) bispecific scFv (bispecific antibody)
scFv: AMAQVQLVQSGGGLVKPGGSLRLSCAASGFSFNTYDMNWVRQAPGKGLEWVSSISSSSSYIYYADSVKGRFTISRDNAKNSLYLQMNSLRAEDTAVYYCARDGVATTPFDYWGQGTLVTVSSGGGGSGGGGSGGGGSQSVLTQPPSVSGAPGQRVTISCTGSSSNIGAGYDVHWYQQLPGTAPKLLIYGNSNRPSGVPDRFSGSKSGTSASLAITGLQAEDEADYYCQSYDSSLSALFGGGTKLTVLGNSGAGTSGSGASGEGSGSKLQVQLVQSGAEVKKPGESLKISCKGSGYSFTSYWIAWVRQMPGKGLEYMGLIYPGDSDTKYSPSFQGQVTISVDKSVSTAYLQWSSLKPSDSAVYFCARHDVGYCSSSNCAKWPEYFQHWGQGTLVTVSSGGGGSGGGGSGGGGSQSVLTQPPSVSAAPGQKVTISCSGSSSNIGNNYVSWYQQLPGTAPKLLIYDHTNRPAGVPDRFSGSKSGTSASLAISGFRSEDEADYYCASWDYTLSGWVFGGGTKLTVLGLEHHHHHH
notes: Expressed in E. coli TG1 from pUC/ALM and purified by IMAC and size exclusion; also called A5/Linker/ML3.9 bs-scFv; ALM proteins
As for B1, the binding result in experiment [1] and in experiment [2] was “binds” throughout.

For the origin of these results see patent publication US20100196265A1 (University of California, published 2010).
